Measured values reported in PMC4070910, “Cathepsin S Signals via PAR2 and Generates a Novel Tethered Ligand Receptor Agonist” (PLoS ONE, 2014).
Entries after “also recorded” stand apart in the source; their conditions may differ.

Experiments:
[1] = test system: salmon sperm transfected HeLa cells; experiment: IP1 (IP-One HTRF) assay in salmon sperm DNA-transfected HeLa cells; type: cell-based; settings: cathepsin S 1 µM, 1 hour, 37°C
Protocol: To determine the effect of PAR2 activation on Gq stimulation, we measured IP1, a downstream metabolite of IP3, using the IP-One HTRF assay from Cis Bio, Medford, MA. HeLa cells were transfected with salmon sperm DNA or PAR2 cDNA as described above, plated in 10 cm culture dishes and incubated at 37°C with 5% CO2. After 24 hours, the cells were trypsinized, counted, plated into 96-well plates at 80,000 cells/well and incubated for another 24 hours. The medium was replaced with a stimulation buffer containing LiCl, per the instructions of the manufacturer. Ligands, including cathepsin S (1 µM), KVDGTS (100 µM) and SLIGRL (10 µM) were added to wells and incubated at 37°C for 1 hour and IP1 levels determined. This assay was performed on multiple wells containing each ligand on three occasions. Error bars represent SEM.

[2] = test system: PAR2; settings: proteases expressed in the skin; cited from earlier work
From the text: PAR2 signaling has been implicated in the development of inflammatory and bowel diseases, asthma, itch and pain. The receptor is expressed on many types of cells including keratinocytes, sensory neurons, fibroblasts, endothelial cells, and inflammatory cells, [3]. Consistent with this broad expression, PAR2 is involved in numerous physiologic and pathophysiologic processes in response to both endogenous and exogenous proteases.

[3] = test system: luciferase-PAR2 and PAR2 mutants; experiment: Western blot for Gaussia luciferase in supernatants; type: cell-based, human; settings: luciferase-PAR2, PAR2M1, PAR2M2, PAR2M3; cathepsin S 2 µM
Protocol: HeLa cells were transfected and treated with cathepsin S as described for the luciferase assay. After treatment with cathepsin S, cells were pelleted at 14,000 rpm for 3 minutes. Supernatants (100 µl) were collected and denatured with 1 µl of 10% SDS. Equal volumes of supernatants were prepared in loading buffer, heated at 90°C for 5 minutes, run on NuPAGE Novex Bis-Tris mini gels and transferred to nitrocellulose membranes using standard protocols. The blot was probed with a primary rabbit anti-Gaussia luciferase antibody. HRP-conjugated donkey anti-rabbit antibody was used to identify the relevant bands on the membrane.

[4] = cited from earlier work
From the text: To better understand the mechanisms of PAR2 activation and regulation, we sought to identify cleavage sites and downstream signaling events induced by an endogenous cysteine protease, cathepsin S. Cysteine cathepsins, including cathepsin S, have been broadly implicated in health and disease including inflammation, cardiovascular and pulmonary disease, obsesity, itch and pain[15]. […] Cathepsin S is expressed in many types of cells. […] The KVDGTS sequence is preceded by LIG, placing G^40 in the P1 postion and L^38 in the P3 postion. The finding of cleavage after glycine is consistent with what is reported in the MEROPS database and a recent report on proteomic identification of protease cleavage sites (PICS)[25]. These reports reveal that cleavage after leucine at P3 is associated with cathepsin S, but less so than with glycine at P1. Correlations were otherwise weak between these reports and the cleavage sites identified here. Cathep ...

[5] = test system: PAR2M2 (glycine40 to alanine); experiment: Calcium imaging in HeLa cells transfected with PAR2M2; type: cell-based, human; settings: cathepsin S 2 µM, KVDGTS 100 µM
Protocol: (§1) Human PAR2 cDNA was cloned as an Xho I-Hind III fragment (1206 bp) into pcDNA3.1(−). 10 µg of DNA were diluted into 0.5 ml of DMEM and mixed with 0.5 ml of DMEM containing 10 µl of Lipofectamine 2000 transfection reagent and incubated at room temperature for 20 minutes. HeLa cells were grown to confluence, trypsinized and 1×10^6 cells were pelleted in a 15 ml tube by centrifugation at 1000 rpm for 5 minutes. The DMEM-Lipofectamine 2000-DNA mixture (1 ml) was added to the cell pellet, resuspended gently and incubated at room temperature for 20 minutes. Four ml of complete DMEM with 10% FBS were added to the tube, mixed by inverting the tube several times, plated into a 96-well glass bottom plate at 20,000 cells/well, and placed in a 37°C CO2 incubator. HeLa cells transfected with vector alone or salmon sperm DNA (shown in the figures) were plated as a control. The medium was aspirated two days after transfection. Fura-2 was used as a ratiometric calcium-sensitive indicator as follows. […]
Imaging was performed using a Zeiss Axiovert 200 M microscope platform equipped with a flipping filter wheel for ratiometric imaging. […] The software later analyzed all images taken during each excitation period. Typically, ratiometric changes were measured in 10–20 cells in each image. An average of the fluorescence of the cells in each image was calculated and plotted against time in seconds. […]

[6] = test system: HeLa cells transfected with salmon sperm DNA; experiment: Fura-2 calcium imaging in HeLa cells transfected with salmon sperm DNA (control); type: cell-based; settings: HeLa cells transfected with salmon sperm DNA alone
Protocol: as §1
Imaging was performed using a Zeiss Axiovert 200 M microscope platform equipped with a flipping filter wheel for ratiometric imaging. […] The software later analyzed all images taken during each excitation period. Typically, ratiometric changes were measured in 10–20 cells in each image. An average of the fluorescence of the cells in each image was calculated and plotted against time in seconds.

B1: cathepsin S: Recombinant human cathepsin S, cysteine protease, expressed in E.coli, refolded and activated (protein, UniProt P25774 115-331, looked up)
Cathepsin S: LPDSVDWREKGCVTEVKYQGSCGACWAFSAVGALEAQLKLKTGKLVSLSAQNLVDCSTEKYGNKGCNGGFMTTAFQYIIDNKGIDSDASYPYKAMDQKCQYDSKYRAATCSKYTELPYGREDVLKEAVANKGPVSVGVDARHPSFFLYRSGVYYEPSCTQNVNHGVLVVGYGDLNGKEYWLVKNSWGHNFGEEGYIRMARNKGNHCGIASFPSYPEI
IP1 level in salmon sperm transfected cells (in words) [1]: no effect above baseline IP1 levels | PAR2 activation (in words) [2]: activated | receptor cleavage, anti-luciferase western blot (in words) [3]: confirmed the results of the luminescence assay | cleavage after alanine (in words) ([4]; PICS report): rarely cleaves after alanine | elastase activity and Ii chain cleavage (in words) [4]: potent elastase; also recorded: cleaves the Ii chain | pH dependence of activity (in words) [4]: active at neutral pH | calcium response on PAR2M2 (in words) [5]: did not induce calcium responses; also recorded: not PAR2M2 or PAR2M3 | calcium response in cells without PAR2 (in words) [6]: Neither cathepsin S nor any of the peptides induced calcium responses
